Test results taken from paper PMC8623809.

Experiments:
[1] = target: bovine submaxillary mucin (BSM), Sigma Type I-S; test: Intrinsic tryptophan fluorescence quenching (excitation 280 nm, emission maximum 326 nm), Stern-Volmer analysis; conditions: 100 mM PBS (composition not further stated), 100 mM PBS adjusted with HCl to pH 7, 5 and 3 (same buffer at all pH values)
[2] = target: porcine gastric mucin (PGM), Sigma Type III; test: as above; conditions: 100 mM PBS (composition not further stated), 100 mM PBS adjusted with HCl to pH 7, 5 and 3 (same buffer at all pH values)

Ksv (Stern-Volmer constant, static quenching) (not printed (uM^-1 inferred)) ([1]; pH 3): 0.19
Ksv (Stern-Volmer constant, static quenching) (not printed (uM^-1 inferred)) ([1]; pH 5): 0.15
Ksv (Stern-Volmer constant, static quenching) (not printed (uM^-1 inferred)) ([1]; pH 7): 0.23
Ksv (Stern-Volmer constant, static quenching) (not printed (uM^-1 inferred)) ([2]; pH 3): 1.25
Ksv (Stern-Volmer constant, static quenching) (not printed (uM^-1 inferred)) ([2]; pH 5): 0.92
Ksv (Stern-Volmer constant, static quenching) (not printed (uM^-1 inferred)) ([2]; pH 7): 1.08
Substance: beta-lactoglobulin (BLG)
